Tested on: peptide library, one residue held at a place counted from the S/T acceptor
Assay: relative phosphorylation of the sub-library (ratio to the mean residue at this position); higher = residue favoured
Conditions: human
In short: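 Human or orthologue kinase constructs, purified and recombinant, were incubated under kinase-specific conditions in 384-well plates with biotinylated degenerate peptide sub-libraries. Each sub-library fixed one residue at one position around a central Ser/Thr. Incubations lasted 90 min with peptides at 50 μM and 50 μM ATP spiked with γ-32P-ATP, after which spots on streptavidin membranes were phosphorimaged and quantified by densitometry. Relative sub-library phosphorylation is a ratio to the mean residue at that position.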

Chain of ATM, construct: Full length (Q13315 whole entry, looked up): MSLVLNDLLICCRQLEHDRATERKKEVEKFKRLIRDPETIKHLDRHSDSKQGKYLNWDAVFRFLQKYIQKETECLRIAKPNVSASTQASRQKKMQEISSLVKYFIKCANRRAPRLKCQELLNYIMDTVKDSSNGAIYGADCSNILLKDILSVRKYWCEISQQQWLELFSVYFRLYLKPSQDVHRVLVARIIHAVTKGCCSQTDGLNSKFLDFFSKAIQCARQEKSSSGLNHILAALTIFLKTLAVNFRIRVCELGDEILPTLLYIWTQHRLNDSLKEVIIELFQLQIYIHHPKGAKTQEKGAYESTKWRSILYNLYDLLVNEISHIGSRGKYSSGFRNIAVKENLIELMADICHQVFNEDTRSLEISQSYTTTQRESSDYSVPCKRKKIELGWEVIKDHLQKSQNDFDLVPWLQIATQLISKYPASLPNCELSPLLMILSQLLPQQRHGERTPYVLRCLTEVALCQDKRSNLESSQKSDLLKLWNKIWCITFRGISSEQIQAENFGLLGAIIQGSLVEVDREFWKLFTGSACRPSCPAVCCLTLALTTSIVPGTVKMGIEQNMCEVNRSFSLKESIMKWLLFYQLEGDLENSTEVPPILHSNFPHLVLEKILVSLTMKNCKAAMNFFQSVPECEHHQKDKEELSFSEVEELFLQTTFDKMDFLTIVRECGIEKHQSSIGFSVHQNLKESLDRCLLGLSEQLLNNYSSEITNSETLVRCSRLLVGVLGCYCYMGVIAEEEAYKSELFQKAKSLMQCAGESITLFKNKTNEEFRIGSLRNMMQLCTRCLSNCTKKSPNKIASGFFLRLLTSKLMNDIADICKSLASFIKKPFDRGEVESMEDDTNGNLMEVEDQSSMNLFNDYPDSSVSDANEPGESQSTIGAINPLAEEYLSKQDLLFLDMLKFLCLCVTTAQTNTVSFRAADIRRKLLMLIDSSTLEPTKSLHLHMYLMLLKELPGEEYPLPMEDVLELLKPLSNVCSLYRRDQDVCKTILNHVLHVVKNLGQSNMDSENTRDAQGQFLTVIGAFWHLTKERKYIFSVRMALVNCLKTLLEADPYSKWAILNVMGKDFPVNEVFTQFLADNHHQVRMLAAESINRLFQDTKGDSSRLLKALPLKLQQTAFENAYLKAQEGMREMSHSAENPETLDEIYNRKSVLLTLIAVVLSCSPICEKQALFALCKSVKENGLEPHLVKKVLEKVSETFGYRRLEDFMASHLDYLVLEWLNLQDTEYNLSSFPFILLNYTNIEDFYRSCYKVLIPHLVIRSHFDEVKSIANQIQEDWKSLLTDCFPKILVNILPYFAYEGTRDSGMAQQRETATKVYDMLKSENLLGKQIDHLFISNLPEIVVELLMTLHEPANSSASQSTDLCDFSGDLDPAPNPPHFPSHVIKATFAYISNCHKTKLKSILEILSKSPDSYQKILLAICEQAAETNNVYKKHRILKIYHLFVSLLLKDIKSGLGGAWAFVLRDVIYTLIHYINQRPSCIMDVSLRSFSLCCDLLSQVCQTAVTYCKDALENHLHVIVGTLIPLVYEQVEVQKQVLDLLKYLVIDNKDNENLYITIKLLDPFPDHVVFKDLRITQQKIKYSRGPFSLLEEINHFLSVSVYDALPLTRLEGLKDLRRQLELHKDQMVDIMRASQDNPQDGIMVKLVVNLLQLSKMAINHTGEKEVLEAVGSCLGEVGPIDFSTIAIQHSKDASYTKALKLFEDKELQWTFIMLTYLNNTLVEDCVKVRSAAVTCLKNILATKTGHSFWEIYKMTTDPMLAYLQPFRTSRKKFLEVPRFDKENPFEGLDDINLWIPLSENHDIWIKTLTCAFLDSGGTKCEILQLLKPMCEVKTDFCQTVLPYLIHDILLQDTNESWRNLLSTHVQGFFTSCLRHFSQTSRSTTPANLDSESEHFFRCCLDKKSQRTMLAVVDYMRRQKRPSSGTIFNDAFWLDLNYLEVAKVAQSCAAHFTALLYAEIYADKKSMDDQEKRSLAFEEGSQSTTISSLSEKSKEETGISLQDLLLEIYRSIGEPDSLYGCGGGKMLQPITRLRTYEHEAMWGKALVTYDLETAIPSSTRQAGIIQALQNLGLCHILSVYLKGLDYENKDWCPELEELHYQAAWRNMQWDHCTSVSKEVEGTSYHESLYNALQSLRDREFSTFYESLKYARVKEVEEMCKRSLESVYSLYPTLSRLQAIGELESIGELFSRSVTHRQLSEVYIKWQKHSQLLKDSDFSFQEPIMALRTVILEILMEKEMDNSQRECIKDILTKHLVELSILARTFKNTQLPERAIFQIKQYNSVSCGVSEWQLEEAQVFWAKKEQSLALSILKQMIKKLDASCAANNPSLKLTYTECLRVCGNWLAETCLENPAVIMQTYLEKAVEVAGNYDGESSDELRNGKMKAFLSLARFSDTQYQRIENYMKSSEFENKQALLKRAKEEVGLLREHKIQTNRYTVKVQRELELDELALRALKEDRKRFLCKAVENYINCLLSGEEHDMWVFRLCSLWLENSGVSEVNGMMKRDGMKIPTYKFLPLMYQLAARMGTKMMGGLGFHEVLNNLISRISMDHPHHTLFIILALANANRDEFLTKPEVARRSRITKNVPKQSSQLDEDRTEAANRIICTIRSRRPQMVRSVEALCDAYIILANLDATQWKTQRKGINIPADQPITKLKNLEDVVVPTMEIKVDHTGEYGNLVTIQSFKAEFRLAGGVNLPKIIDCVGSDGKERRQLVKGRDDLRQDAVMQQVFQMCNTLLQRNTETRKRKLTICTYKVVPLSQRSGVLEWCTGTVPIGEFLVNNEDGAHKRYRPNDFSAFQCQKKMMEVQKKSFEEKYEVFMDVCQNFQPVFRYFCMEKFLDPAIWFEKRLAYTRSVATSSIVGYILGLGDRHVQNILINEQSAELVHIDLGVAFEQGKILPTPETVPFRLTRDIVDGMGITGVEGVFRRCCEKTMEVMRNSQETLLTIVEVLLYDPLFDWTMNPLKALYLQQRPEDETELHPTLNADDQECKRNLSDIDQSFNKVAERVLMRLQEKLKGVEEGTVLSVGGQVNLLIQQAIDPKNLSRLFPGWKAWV
Chain of MAPK12, construct: Full length (P53778 whole entry, looked up): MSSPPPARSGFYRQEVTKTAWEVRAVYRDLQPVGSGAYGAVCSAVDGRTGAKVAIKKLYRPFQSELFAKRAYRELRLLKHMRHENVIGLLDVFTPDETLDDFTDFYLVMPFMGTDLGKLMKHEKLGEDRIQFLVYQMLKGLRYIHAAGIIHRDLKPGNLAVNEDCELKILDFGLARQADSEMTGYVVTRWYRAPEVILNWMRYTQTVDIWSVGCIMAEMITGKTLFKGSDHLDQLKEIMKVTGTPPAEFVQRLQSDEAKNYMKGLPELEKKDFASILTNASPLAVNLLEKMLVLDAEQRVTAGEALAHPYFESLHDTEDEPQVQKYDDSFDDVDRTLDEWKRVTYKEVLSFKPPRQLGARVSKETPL

MAPK12, construct: Full length (from UniProt P53778)
relative phosphorylation
Conditions	at +1	at +2	at +3	at +4	at -1	at -2	at -3	at -4	at -5
A fixed	0.289	1.22	1.13	1.01	1.21	1.66	1.13	1.19	1.07
D fixed	0.0904	0.475	0.864	0.879	0.738	0.789	1.23	1.28	1.22
E fixed	0.0906	0.374	0.973	0.872	0.905	0.822	1.41	1.21	1.14
F fixed	0.153	0.77	0.897	1.1	0.582	0.444	0.622	0.672	0.818
G fixed	0.644	1.1	1.36	1.23	1.36	1.14	1.98	1.44	1.34
H fixed	0.183	1.38	1.26	1	1.17	0.584	1.23	1.04	1.16
I fixed	0.187	1.31	0.697	0.881	0.542	0.946	0.712	0.774	0.715
K fixed	0.152	1.08	0.962	0.931	1.04	0.433	0.761	1.12	1.28
L fixed	0.198	0.947	0.845	0.994	1.03	1.31	0.643	0.855	0.733
M fixed	0.17	0.878	0.851	1.15	1.27	1.16	0.838	0.949	0.83
N fixed	0.108	0.806	0.852	0.821	0.878	0.819	1.01	1.07	1.03
P fixed	13.8	0.539	1.33	1.11	1.37	3.27	1.33	1.11	1.27
Q fixed	0.141	0.914	0.934	0.921	1.13	0.742	0.918	0.916	0.937
R fixed	0.174	1.84	1.28	0.908	1.48	0.664	1.05	1.03	1.06
V fixed	0.302	1.36	0.855	0.89	0.611	1.31	0.649	0.654	0.823
W fixed	0.181	0.851	0.894	1.18	0.674	0.457	0.674	0.869	0.725
Y fixed	0.159	1.15	1.02	1.12	1.01	0.446	0.802	0.827	0.859
pThr fixed	0.509	1.04	0.824	0.669	0.457	0.823	1.27	1.15	1.42
pTyr fixed	0.52	0.799	0.925	0.686	0.878	1.11	1.56	1.28	1.44

ATM, construct: Full length (from UniProt Q13315)
relative phosphorylation
Conditions	at +1	at +2	at +3	at +4	at -1	at -2	at -3	at -4	at -5
A fixed	0.429	0.858	0.748	0.776	0.759	1.18	0.922	0.959	1.1
D fixed	0.42	2.02	1.28	1.27	2.27	1.56	1.26	1.3	1.11
E fixed	0.85	2.16	1.45	1.45	1.62	1.77	1.52	1.5	1.08
F fixed	0.701	0.658	1.5	1.23	1.1	0.868	1.14	1.2	1.4
G fixed	0.361	0.756	0.691	0.922	1.06	0.93	0.848	0.995	0.987
H fixed	0.38	0.918	0.67	0.84	1.09	0.936	0.936	0.912	0.879
I fixed	0.594	0.872	1.03	1.08	0.405	0.685	0.814	0.906	1.06
K fixed	0.384	0.649	0.5	0.499	0.376	0.696	0.681	0.721	0.662
L fixed	0.621	0.77	1.59	1.11	1.56	0.692	0.867	0.96	0.987
M fixed	0.672	0.787	1.26	1.25	1.05	0.85	1.18	0.995	0.971
N fixed	0.748	1.21	0.742	0.791	1.83	1.24	0.842	0.789	0.859
P fixed	0.448	1.1	0.742	0.779	0.412	0.906	0.643	0.819	0.784
Q fixed	8.34	1.1	0.989	0.787	0.731	1.28	0.792	0.733	0.617
R fixed	0.648	0.839	0.545	0.577	0.518	1.13	1.66	0.865	0.894
V fixed	0.521	1.01	0.875	0.873	0.387	0.716	0.671	0.818	1.1
W fixed	0.421	0.514	1.31	1.51	0.525	0.736	1.06	1.27	1.26
Y fixed	0.466	0.798	1.08	1.25	1.31	0.823	1.17	1.25	1.25
pThr fixed	0.577	1.47	0.933	1.49	0.748	1.37	1.15	1.21	0.84
pTyr fixed	0.468	1.85	1.26	2.74	3.86	1.68	1.7	1.23	1.05
